From article PMC12017799, “Molecular mechanism of SmMYB53 activates the expression of SmCYP71D375, thereby modulating tanshinone accumulation in Salvia miltiorrhiza”

Target: SmMYB53 (Salvia miltiorrhiza, UniProt A0A059PSP0 1-372)
Experiment: EMSA; SmMYB53 alone; LightShift Chemiluminescent EMSA kit (Beyotime) binding buffer, >30 min at 4 C; unlabeled competitor 10-fold; salt and pH not stated
Conditions: protein: recombinant; tags: His (pCold); label: biotin; blunt

Chain of SmMYB53 (A0A059PSP0 entry or part of it): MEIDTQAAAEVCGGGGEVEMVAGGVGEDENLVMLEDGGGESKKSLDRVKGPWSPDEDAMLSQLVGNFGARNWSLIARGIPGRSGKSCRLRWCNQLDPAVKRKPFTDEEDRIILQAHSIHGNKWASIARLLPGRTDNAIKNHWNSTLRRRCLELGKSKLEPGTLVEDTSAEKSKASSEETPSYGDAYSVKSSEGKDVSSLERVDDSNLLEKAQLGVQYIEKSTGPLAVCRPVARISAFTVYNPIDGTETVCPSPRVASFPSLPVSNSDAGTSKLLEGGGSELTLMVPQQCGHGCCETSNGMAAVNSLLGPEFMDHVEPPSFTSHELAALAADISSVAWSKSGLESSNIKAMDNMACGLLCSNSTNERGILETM

Binder	binding result
MBS1 probe (SmCYP71D375 promoter) (dsDNA) DNA 1: GCTTCAGTTGAGCTGCTTCAGTTGAGCTGCTTCAGTTGAGCT DNA 2: AGCTCAACTGAAGCAGCTCAACTGAAGCAGCTCAACTGAAGC	binds
MBS2 probe (SmCYP71D375 promoter) (dsDNA) DNA 1: AGATCCGTTGGAGAAGATCCGTTGGAGAAGATCCGTTGGAGA DNA 2: TCTCCAACGGATCTTCTCCAACGGATCTTCTCCAACGGATCT	binds
